T1: Zip2^499-704 (XPF-like region), recombinant, co-expressed with His6-Spo16 (S. cerevisiae, UniProt P53061 499-704)
T1 sequence: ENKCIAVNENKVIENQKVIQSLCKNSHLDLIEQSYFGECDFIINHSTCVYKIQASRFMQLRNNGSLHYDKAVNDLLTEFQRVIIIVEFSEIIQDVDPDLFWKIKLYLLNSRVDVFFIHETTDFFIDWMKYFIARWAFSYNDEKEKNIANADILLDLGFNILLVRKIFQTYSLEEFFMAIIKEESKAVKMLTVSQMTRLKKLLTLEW

T2: Zip2^499-704, surface-lysine methylated (Form 1 crystals) (S. cerevisiae, UniProt P53061 499-704)
T2 sequence: T1 sequence

B1: His6-Spo16 (full-length Spo16 with TEV-cleavable N-terminal His6-tag), recombinant (natural protein)
chain: SEFFWDVQKIQEISNVEEHSVVKCVTVNTSRLISQLNEELQDEESGVNFIVTQLQLLINNVYEKIQKSPGVPAHRSLMINLNFTRLKFSIAYWDILLERSLDLINGPSKTGARYFITEVTPVDRSRYVENNQYFLAFKANQRLTRNSVDMDEFIDFEILIKQIIFDLFKKNGIPDQDFEAILSRFHNLESLVVAFNE
B2: His6-Spo16, surface-lysine methylated (Form 1 crystals) (natural protein)
chain: B1 chain
modifications: surface lysines dimethylated (positions not listed)

Key:
[1] = molecular target: T1, Zip2^499-704 (XPF-like region), …; assay: SEC-MALS
[2] = molecular target: T2, Zip2^499-704, surface-lysine methylated …; assay: crystal structure

| Binder | stoichiometry N [1] | binding result [2] |
| --- | --- | --- |
| B1 | 1 | – |
| B2 | – | binds |
